From US20230226096A1 (Orna Therapeutics, Inc., priority 2020, published 2023)

B1: Human TMEV-like cardiovirus (nucleic acid, listed as Cardiovirus sp.)
DNA: TCCGACGTGGTTGGAATTAACATCTTTTCCGACGAAAGTGCTATTATGCCTCCCCGATTGTGTGATGCTTTCTGCCCTGCTGGGCGGAGCGTCCTCGGGTTGAGAAACCTTGAATCTTTTCCTTTGGAGCCTTGGCTCCCCCGGTCTAAGCCGCTTGGAATATGACAGGGTTATTTTCCAAACTCTTTATTTCTACTTTCATGGGTTCTATCCATGAAAAGGGTATGTGTTGCCCCTTCCTTCTTTGGAGAATCTGCGCGGCGGTCTTTCCGTCTCTCAACAGGCGTGGATGCAACATGCCGGAAACGGTGAAGAAAACAGTTTTCTGTGGAAATTTAGAGTGGACATCGAAACAGCTGTAGCGACCTCACAGTAGCAGCGGATTCCCCTCTTGGCGACAAGAGCCTCTGCGGCCAAAAGCCCCGTGGATAAGATCCACTGCTGTGAGCGGTGCAACCCCAGCACCCTGGTTCGATGGCCATTCTCTATGGAACCAGAAAATGGTTTTCTCAAGCCCTCCGGTAGAGAAGCCAAGAATGTCCTGAAGGTACCCCGCGCGCGGGATCTGATCAGGAGACCAATTGGCAGTGCTTTACGCTGCCACTTTGGTTTAAAAACTGTCACAGCTTCTCCAAACCAAGTGGTCTTGGTTTTCCAATTTTGTTGACTGACAAT
B2: Hepacivirus P (nucleic acid, listed as Hepacivirus sp.)
DNA: ACATGGGGGGGGGCTGACAGTGAGTACACTGTGCCAAGCAGGTGCTACGCTATGCCTAGGTGCTGCTGTAGGCCAAGGACATGTCCCAGTCATCCCAGGTGAGGGGGGGGGTTCCCCTCACCGCTGCCACTGCCTGATAGGGTCCTGCCGGAGGGTCTCGGTGTCCGGCTGTAC
B3: Hubei tombus-like virus 9 (nucleic acid)
DNA: GGACCATCCAGGCAGGTGTAGGCTAGTACCCTCACCTGACCTGTCGCGATGTTTGGCTTTGTGAGGCTTGTGGGAGGATCCCTTGGCCCATGCATTGCTGCTGTCATCGTGAAAAATGTTGTATGCTCGCACCTGGCGTGGAGGAAACGGCATTTGACGGATGCTAAGGAGGATTTGAAGGTCCTCAACTCCCATGCCTTATTACAAGTCCCCTTTCCTTCAAGCTTCGAGCCCACGTCTGTGACGAGCAGAGGTGAGGTTGGAGTCAAGAGGAGTCCTATTCAAGCTGTTCGCAGCAAGAACCATAAAACTTTCATTGCTCAATGGGCAAGAGCGGCTAAGGCTCGGTTCTCGTTTGCACGACAGTGTGAGCGGAGCCCTGTAAATGTCGCGGCCCTTCATCGGTGGTTTGCATCGGAGTTTAAGAAAATTGGCATGAACTTGCTCCAGGTTTCGTACGTGATCGATGAGGTTGTTGAACTTAGTTTGGAACCAACGTATGAGCGTATGGTGTCCGAAACTAAGAAGCAATTCCGTCATCGGGCACGTATGGAATACTACAACGAGAAAAAATGCCTTGAAAAGATCCACTAGGAACGC
B4: Hubei picorna-like virus 2 (nucleic acid)
DNA: AGCAACTTCTTTCTGAAAACTAGCTAGAGTTCGACGATCTCTCTGGCTAATGACAAATAACCAATCAAAAAGTCAAATGTTCATGTATATATATATTTAGTAGTGACCTTTATTTAGAAAAACTTTAGATGATTTATCGTCAAGTTGCCCTTTGTGAAGCGATCAGCTTTTTATATCGTTTCATTTTTGTATACGTCTTAATTGACGTTGTAAGTACGTTTTGCATACCTCACATTGAGGATAGTATCGTTTCCTGACTAAGAAGTTAAACTAGTCTACCAATAGCAACCATATAGGATATAGCTTTGTTTTTAACAAGGTTTAATCTGATCTTATGCTCTTGCTTACGGTGTTTTATGTATAGAAAAGTTTTTATAAAAACTACATAATTGTCAAAAGAAAAAGCGTTACGTACTGACGCATTTATGTTCACAGTGTGACACAAACCTTCTATATTTTGATTGTAAAATAGGCTTTGCCTGACCATTTATCAAATACAAACTGTTTCAAACGCCTCTCCGAGCCATATTGGCCGACGCGAATCGACATAACAGGGTGAGTTTACAGCTGCAGTTGCAGCCGAGGATCCACTTATTTGAGAGAGAATTACTCTTAACGAAATTTTGAAGTCACTTCTACACAGTTAAGTCTGAGTAGGCGTTATCCAAACGTAAA
B5: EV22 (nucleic acid)
DNA: CCTTATAACCCGACTTGCTGAGCTTCTATAGGAAAAAACCCTTTCCCAGCCTTGGGGTGGCTGGTCAATAAAAACCCCCATAGTAACCAACACCTAAGACAATTTGATCAACCCTATGCCTGGTCCCCACTATTCGAAGGCAACTTGCAATAAGAAGAGTGGAACAAGGATGCTTAAAGCATAGTGTAAATGATCTTTTCTAACCTGTATTATGTACAGGGTGGCAGATGGCGTGCCATAAATCTATTAGTGGGATACCACGCTTGTGGACCTTATGCCCACACAGCCATCCTCTAGTAAGTTTGTAAAATGTCTGGTGAGATGTGGGAACTTATTGGAAACAACAATTTGCTTAATAGCATCCTAGTGCCAGCGGAACAACATCTGGTAACAGATGCCTCTGGGGCCAAAAGCCAAGGTTTGACAGACCCATTAGGATTGGTTTCAAAACCTGAATTGTTGTGGAAGATATTCAGTACCTATCAATCTGGTAGTGGTGCAAACACTAGTTGTAAGGCCCACGAAGGATGCCCAGAAGGTACCCGCAGGTAACAAGAGACACTGTGGATCTGATCTGGGGCCAACTACCTCTATCAGGTGAGTTAGTTAAAAAACGTCTAGTGGGCCAAACCCAGGGGGGATCCCTGGTTTCCTTTTATTGTTAATATTGACATT
B6: Hubei zhaovirus-like virus 1 (nucleic acid)
DNA: GTGCAGGATGGCCTTTCCCATCTTAAGTGGTTTGTAGGATTTCGTGGGTCCATACCCCCCGATTTCTTGGTACGTATTCCATGCACGGAGAATACGACCAAAACTCTTATTTCAAAAAATATTATTTTTTACTCTTGTGGGCTGAGTGCGACCCACCAGTTCCAGCTTAGCAACCTGGAAGTTGTTGGAGATTTATGGAACCAAATTACACATGCGTGGAGTGCCGCCACTCCGTATCTGTTCACTCATTACGCGATTAAGTTCTGCGACGAGACGAGCGAA
B7: Kunsagivirus 1 (nucleic acid, listed as Kunsagivirus sp.)
DNA: TTTCAAATCGGACTCCGGTAGTTATACCGGAGCCCGGTTTGGACGCTTGGGCCGCGTTAACAGCCCCCCACCCCTTTCCCACTGACTGATTTCTCGGATTGGACTCATTTGCATTGCTAACTCTGATTCTGGATTTCCCCGTTTATGTCGTCGCGGTCGGAAGTGCACGTACTTCGACGTTGATCTGATGGCGTTTGTTTCCAGGGGGGAGGTGGCGGCAGAAACGCCCCCGCCGTAAACTTCGGCGGGCCACGCCTGTCAAGCCACTCCCTGGGGCCGAGCGCCTGAGGTGATACAGAGAGATAAGCACACTGGGCGCTGACAACGCCCGGGACCTCAGTGAGAAGAGCAGTAGGGCCGTGTTTATGGGACTCCATTGGATATCCCCCGCTTGTCGGAACTCACGGCTACTCCGGGTTGGGAAGCCCGCGACTGGTACTGTACTGGGTGATAGCCTGGTGCCTTCCCTCTCACTGTTGTATGAAGGCTGAAAACCCCCT
B8: Harrier picornavirus 1 (nucleic acid)
DNA: GATGTGTGACGGTGTAATTACTTTCCGGATCCCACTTTCCTATTATAACTCTTTCATCCCAAGGTTAGGGAAAGAACCTGGCTCGGTACCACCAGACCCTCCGCCACGCTAGTGGACTCTCCGGAGATAACGGTACCCCCTTTGTAGTCACCTGTGCTGGTGAAGAACCACCTAGTATTGCTTGGGTGCGTGCCGCCTAGCTTCCATTTCTTCTGGAGCACTGTGCAATGAGGTTTCCCCACTTGGTAACAAGTGCCTCAGGTCCCGCAAGGATACTGTGGGGTGGTGTGACCGCAGGGAGCTGTCTCCACGGCTCCTCTAATGTTACGCCGCTATCCACAGGCCAGTGCGTGTCATCGATCCCGGATGACAGAGCTAGTATTGCGAACCCCCAAGTAAGAAAAGTGGCTAGTAACCTGATAGCTGGTGAAGAGGGTGGGTCAGTTGAGTAGATGCCCTAGAGGTACCCGAAAGGATCTGACTAGGGACCCGTGACTATACATTAGGTAAACCGGGTATAAAAACCATGAAAAACTGACCACTTTTCTTTTAACCTCTTCTTTCTTTTTATGTGTGTTAAGTGTTTTGAGTTTGGACTGTACCTTGCCCGCCTTTCTTGGATTTTCTCTATCGCTCTTCTTACACCTACTGTTATCAAGGCACTCTTTAGAGATA
B9: Hubei tombus-like virus 32 (nucleic acid)
DNA: TTCGGGTTTACCCGCGTAAGCGGCCACACTGACTGGTTGTCGGTGTTGAATTTGTATACCAGATGAGGAGACGTTACCACCGTCTCGGCAGTGCTACGTCTGGGAAAGGACTGTGATAGTGGACAGTCCTACCGTCTTTAGATACATTGCGTTGTGTATAGCCCGGGAGGGATTAACTAATAGCAACGCAATGCACACGGCGGTTCGGATTTGCTTGACTGATGGAAAGACATCTAAGTTCTAATTGAACC
B10: Megirivirus E (nucleic acid)
DNA: GCTTGGCAACCTCATATCGTTACTCTGCCGACCAGTCTGGGTCGTGTGGCCACACAATGGGATTCGTTCTGTTGTGTAGAGTCACATGGCATTACTGGGCTGATCGGTGGGGATCCGTTGCCACCCCTAAACCCTTACATTTACTGGACTGCTTTTCTTGGCCCCGGAATGATTCGCTCACCCGCGATGAGGACTGTTGTTCTTATTATGGCAGGATTACGCGTCTGGTCCGCGTAAGGACTAATTCCTATGTTTATACGTTACTACCTTGTTCTGAACGGTGGGCGCCACCCCGCCTAGTAGGATCCTGGCTTATCGTGTAGACCTCTAGGGACCACATTAGCTAGAGTGTAGGCTGCTATGGATGGAGTAGTGACCCCTTTTTGGGTATCACTCTCTAAGACTCCGGAATGTGTCATAGTACGCTGGAAATCCTTACTTGTTTTTCCATGAGGGGGAGGTGGTGCTGAAATATTGCAAGCCACCCCTCGGTTAAAACAGTTTGGTGCCGCTTATGCCATATTACCGCCCCTTGTAGTTGGGCTGTTTTTGCAGCTCCGGGTTAGTAGAGTACCATAGTGGACGCGGTGTTGGGAATCACCGCCTTGGCTGCACACTGCTTGATAGAGCTGCGGCTGGTCAAGCTAATTGTGGTATAACCAGTTGATTTGGCAT
B11: Hubei sobemo-like virus 3 (nucleic acid)
DNA: GAGATGTTTGCGTGGGCCGTTGCGCTGCGGGCGGCCCACCTCCCTACGGGGACCGTGAGACACCGCTGGGGAAGGCCCCCACCCCCGGCCAAGGGGATCCTGCCGAGAGGCAGGAGAAAGAGGCCCAGCCCTCTGGGGCGCCTTTAGGGGTGCCTGGGAGGGAAGTACCCGAGCCGGGCGGCCGGTCGGGTGCGGCTGTGCAGTTCGAGGCTAACCGTAAGGAAGGCCTGAGCTGCCTCGGCTTGTCGGAAAGGAAGACGAAGGCACTTATCAAGGCTTTCAGGAAGCAGGAGCGCAATTACAGCGCGCGCCGTGCGGCCTGGATTAACCGCATTTGGCCG

Each molecule was assayed on HEK293 cells. Conditions: luminescence from secreted Gluc in supernatant 24 hours after transfection of HEK293 cells; circular RNA encoding Gluc with the named IRES (UTR truncated to 675 nt).
Format: cell-based, human

Molecule | Expression
B1 | 4.48E+07
B2 | 6.04E+05
B3 | 9.28E+04
B4 | 1.95E+05
B5 | 1.95E+07
B6 | 1.03E+05
B7 | 4.15E+05
B8 | 1.47E+05
B9 | 9.23E+04
B10 | 1.10E+07
B11 | 1.17E+05
